Results published in patent publication US20150104459A1 (published 2015).

B1: TCN-534 (5249_B02) (antibody, V domains shown)
VH: QVQLVQSGAEVKKPGSSVKVSCRESGGTFNGYTITWVRQAPGQGLEWMGGIIPMMGTVNYAQKLQGRVTITTDYFTKTAYMDLNNLRSEDTAMYYCVKIRYTGQQLLWGQGTLVTVSS
VL: DIQMTQSPSTLSASIGDRVTITCRASQSIASWLAWYQQKPGKAPKLLIYEAVNLESGVPSRFSGSGSGTDFTLTISSLQPDDFATYFCQHYGTISQTFGGGTKVEIK
B2: TCN-539 (5056_A08) (antibody, V domains shown)
VH: QVQLVESGGGVVQPGRSLRLSCAASEITFITYAMHWVRQAPGKGLEWVALISDDGSNKFYADSVKGRFTISRDNSKNTLYLQMNSLRAEDTAAYYCAREGVYFDSGTYRGYFDYWGQETLVTVSS
VL: EIVLTQSPATLSLSPGERATLSCRASQSVSSYLAWYQQKPGQAPRLLIYDASNRATGIPARFSGSGSGTDFTLTISSLEPEDFAVYYCQQRSHWPPITFGQGTRLEIK
B3: TCN-543 (5081_G23) (antibody, V domains shown)
VH: QVHLVQSGAEVRKPGDSVKVSCKTSGYTFSTYPVAWVRQVPGQGLEWMGWISTYNGNTNFAQNFQGRVTLTTDTTTNTAYMEVRSLKFDDTAVYYCARVEGSYRDFWNNQNRFDPWGQGTLVTVSS
VL: SYVLTQPPSVSVAPGQTARISCGGSNIGGKSVHWYQQKPGQAPVLVVYDDSGRPSGIPERFSGSNSGDTATLTISRVEAGDEADYFCQVWDNFGGVFGTGTKVTVL
B4: TCN-527 (5086_C06) (antibody, V domains shown)
VH: QVQLQESGPGLVKPSETLSLNCAVSGGSISNYYWSWIRQPPGKGLEWIGYISYNGRPKYNPSLTSRVTISVDTSKDQFSLELRSVTAADTALYYCARETRFGELLSPYDAFEIWGQGTMVTVSS
VL: DIQMTQSPSSLSASVGDRVTMTCRASQNIRSYLNWYQQRPGTAPKLLIYAASTLHSGVPSRFSGGGSGTDFTLTINNLQPEDFASYYCQQSYDNPQTFGQGTKVEIK
B5: TCN-531 (5091_H13) (antibody, V domains shown)
VH: EVQLVESGGDLVQPGRSLKLSCTGSGFTFGDYGVTWVRQAPGKGLEWVGFIRTRPWGGTADTAASVKGRFTISRDDSKSLAYLQMNSLKTEDTAVYYCCRDAPPNVEVASMTNWYFDLWGRGTLVTVSS
VL: DIQLTQSPSSLSASVGDRVTITCRASQGILNCLAWYQQKPGKVPNLLMYAASTLQSGVPSRFSGSGFGTDFTLTISSLQPEDVATYYCQTYGGVSTFGGGTKVEIR
B6: TCN-530 (5248_H10a) (antibody, V domains shown)
VH: QVQLVQSGAEVRKPGSSVKVSCKASGGPFMSYAIGWVRQAPGQGLEWMGGINPVFGRPHYAQKFQGRVTIATDDSTKTSYMELSSLTSEDTGMYYCASRYSRSSPGTFESWGQGTLVTVSS
VL: EIVMTQFPATLSVSPGERVTLSCRASQSVSNNLAWYQQKPGQPPRLLIYDASTRATGVPAKFSGTGSGTEFTLSISSLQSEDFAVYYCQQYHNWPPSYSFGLGTKLEIK
B7: TCN-522 (3212_I12) (antibody, V domains shown)
VH: QVQLQQWGAGLLKPSETLSLTCTVSGGSLTDYSWNWIRQPPGKGLEWIGDTLHNGYTNYNPSLRGRVSISIDTSKNQVSLRLTSVTAADTALYYCARGSGGYGGFDYFGKLRTWDFWGQGTLVTVSS
VL: DIQLTQSPSSLSASVGDRVTITCRASQGIRNDLGWYQQKPGNAPKRLIFGASSLQSGVPSRFSGSGSGTEFTLTISSLQPEDFATYYCLQHNSYPYTFGQGTKLEIK
B8: TCN-540 (5060_F05) (antibody, V domains shown)
VH: QVQLVQSGGGVVQPGRSLRLSCAASGFTFSSYAMHWVRQAPGKGLEWVAIISYDGNDQYYTDSVKGRFTISRDSSKVYLQMHRLRPEDTAVYYCAKEFETSGYFHGSFDYWGQGILVTVSS
VL: QSALTQPASVSGSPGQSITISCTGTSSDVGGYNYVSWYQQHPGKAPKLLIYEVTNWPSGVSNRFSGSKSGNTASLTISGLQAEDEADYYCSSYAGSSTWVFGGGTRVTVL
B9: TCN-535 (5246_P19) (antibody, V domains shown)
VH: QVQLVQSGSEVKKPGTSVKVSCTASGSVFTNYGISWVRQAPGQGLEWMGGIIPLFGAAKYAQKFQGRVTITADESTKTVYMELSRLTSKDTAIYFCAKAPRVYEYYFDQWGQGTPVTVSS
VL: EIVLTQSPGTLSLSPGERATLSCRASQSVSSSQLAWYQQKPGQAPRLIIYGASTRATGIPDRFSGSGSGTDFTLTIGRLEPEDFAVFFCQQYSTSPPTFGQGTKVDFK
B10: TCN-542 (5079_A16) (antibody, V domains shown)
VH: QVQLQESGPGLVKPSQTLSLTCTVSGGSISSGNYYWNWVRQHPGKGLEWIGYIYYRGSTFYNPSLKSRVTISIDTSKNQFSLRLSSVTAADTAVYYCAKDTRSSLDNYQYGMDVWGQGTTVTVSS
VL: QTVVTQEPSLTVSPGGTVTLTCASSTGAVTSSYFPNWFQQKPGQAPRPLIYSTTIRHSWTPARFSGSLLGGKAALTLSGVQPEDEADYYCLLYSGGDPVAFGGGTKLTVL
B11: TCN-526 (5084_C17) (antibody, V domains shown)
VH: EVLMVESGGGLVQPGGSVRLSCVASGFSFSSHWMTWVRQAPGKGLEWVANIEDDGGDKYYVDSVKGRFIISRDNAKNSVYLQMNSLRAEDTAVYFCARGSGSSDRSDYDPHYYYYLDVWGKGATVTVSS
VL: DIQLTQSPSSLSASVGDRVTITCRASQSISRYLNWYQQKPGKAPKLLLFAASTLLDGVPSRFSGSGSGTDFTLTISSLQPEDFATYYCQRNHSPSWTFGQGTRVEIK
B12: TCN-536 (5095_N01) (antibody, V domains shown)
VH: QVQLQQWGAGLLKPSETLSLTCAVYGGSFSVSGYYWSWIRQPPGRGLEWIGEISHGGSTNYNPSLKSRVTISVDTTKNQFSLRLSSVTAADTAVYYCARGTDPDTEVYCRVGNCAAFDYWGQGSLVTVSS
VL: EIILAQSPGTLSLSPGERATLSCRASQFVSTRSLAWYQQRPGQAPRLLIYGASSRATGIPDRFSGSGSGTDFTLTISRLEPEDFAVYYCQHYGYSPRYAFGQGSKVEIK
B13: TCN-533 (5256_A17) (antibody, V domains shown)
VH: QVQLVQSGADVKKPGSSVTVSCKASGGSFSNYGINWVRQAPGQGLEWMGGIIPLINAPNYAPKFQGRVTITADMFSNIVSLQLTSLRTDDTAVYYCARRKMTTAIDYWGQGTLVTVSS
VL: QPVLSQPPSASASLGASVTLTCTLSSGFDNYQVAWYQQRPGKGPRFVMRVGNGGNVASKGDGIPDRFSVSGSGLNRYLTIKNIQEDDESDYYCGADHGSGNNFVSPYVFGGGTKLTVL
B14: TCN-538 (3206_O17) (antibody, V domains shown)
VH: QITLKESGPTLVKPTQTLTLTCVFSGFSLSITGVRVGWIRQPPGKALEWLALISWDDEKHYSPSLQSRLTITKDTSKNQVVLTMTNLDPVDTATYYCARSTDRGHVLRYFGWMLPGDAFDVWGQGTMVTVSS
VL: DIVMTQSPDFLPVSLGERATINCKSSQRVLYSSNNKNYLAWYQLKPGQPPKLIIYWASTRESGVPDRFSGSGSGTEFTLTISSLQAEDVAVYYCQQYYSRPYTFGQGTKLEIK
B15: TCN-545 (5082_I15) (antibody, V domains shown)
VH: QVQLQQWGAGLLKPSETLSLSCAVFGGSFSDYYWTWIRQPPGKGLEWIGEIKHSGRTNYNPSLESRVTISVDTSKNQFSLKLSSVTAADTAIYYCARGTDPDTEGYCRSGSCSAFDFWGQGTLVTVSS
VL: EIVLTQSPGTLSLSPGERATLSCRASHFVNYRSLAWYQQTPGQVPRLLIYGASTRATGIPDRFSGSGSGTDFTLTISRLEPEDFAVYFCQQYGGSPRYTFGQGTRLEIK
B16: TCN-529 (5297_H01) (antibody, V domains shown)
VH: QITLRESGPTLVKPTQTLTLTCTFSGFSLSTNGVNVGWIRQPPGKALEWLALIYWDDDKRYSPSLKRRLTITKDTSKNQVVLTLTNMDPVDTATYYCAHRPDFYGDFEYWGPGTLVTVSS
VL: QSALTQPASVSGSPGQSITISCTGSSSDIGGYNYVSWYQQHPGKAPKLMIYDVNNRPSGVSNRFSGSKSGNTASLTISGLQTDDEADYYCGSYTGSPHYVFGTGTKVTVL
B17: TCN-544 (5082_A19) (antibody, V domains shown)
VH: QVQLQESGPGLVKPSETLSLTCTVSRGSIGHYFWSWIRQPPGKGLEWIGYISYSGSTKYNPSLRSRVTISVDTSKNQFSLNLNSVTATDTALYYCAREDYDILTGAGPGMEVWGQGTTVTVSS
VL: QSMLTQPPSASGTPGQRVTISCSGSSSNIGSNTVNWFKHLPGTAPKLLIYRNDLRPSGVPDRFSGSKSGTSASLAISGLQSEDEADYYCATWDDSLNGFYVFGTGTKVTVL
B18: TCN-528 (5087_P17) (antibody, V domains shown)
VH: QVQLVQSGSEVKKPGASVKVSCKASGYTFTNYDINWIRQAPGQGLEWMGWINPNSGTTGSAQRFQGRVTITVDTSITTVYMELSSLRSDDTAIYYCARGRELLRLQHFLTDSQSERRDCFDPWGQGTLVTVSS
VL: DIQMTQSPSSLSASVGDRVTITCRANQDIGIYLNWYQQNPGKVPKLLLHGASSLQGGVPSRFSASGSGTDFTLTIHSLQPEDLATYYCQQSRRLPYTFGQGTRVELK
B19: TCN-546 (5089_L08) (antibody, V domains shown)
VH: QVQLQQWGAGLLKPSETLSLTCGVYGGSLSDYYWSWIRQPPGKGLEWIGEINHSGGTNYNPSLKRRVTISVDTSKKQFSLKMNSVTAADTAVYYCARGTDPDTEVYCRAGNCAAFDFWGQGTLVTVSS
VL: EIVLTQSPGTLSLSPGERATLSCRASHFVIGRAVAWYQQKPGQAPRLLIYGASSRATGIPDRFSGSGSGTDFTLTISRLETEDFAVFYCQHYGSSPRYAFGQGTKLEIK
B20: TCN-537 (3194_D21) (antibody, V domains shown)
VH: QVQLQQWGSGLLKPSETLSLTCAVYGGSFRDDYWTWIRQPPGKGLEWIGEINHSGRTNYNPSLKSRVTISVDTSLKQFSLKVISVTAADTAVYYCARGTSHVSRYFDWLPPTNWFDPWGQGTQVTVSS
VL: DIVLTQSPGTLSLSPGERATLSCRASQSVSSSYLAWYQQKPGQAPRLVMYGAATRATGIPDRFSGSGSGPDFTLTISRLEPEDFAMYYCQQYGNSPITFGQGTRLEIK
B21: TCN-532 (5262_H18) (antibody, V domains shown)
VH: QVQLQESGPGLVKPSETLSLTCTVSGGSVSSETYYWSWIRQPPGKGLEWIGYIYYIGNTDYRPSLKSRVTISLDTSKNQFSLKLSSVTAADTAVYYCARGAYYDSSGYPAFYIWGQGTMVTVSS
VL: QSVLTQPPSVSGAPGQRVTISCTGSSSNIGSDYDVHWYKQLPGTAPKLLIFGNSNRPSGVPDRFSGSKSGTSASLAITGLQAEDEADYYCQSYDSSLSGFHVFGSGTKVTVL

Biological target: Hemagglutinin of influenza A/Solomon Islands/3/06 (H1N1) on whole virions (Influenza A virus A/Solomon …)
Assay: cell-based or functional assay

Binder | % Neutralization [%]
B1 | 86
B2 | 97
B3 | 100
B4 | 12
B5 | 65
B6 | 64
B7 | 33
B8 | 100
B9 | 82
B10 | 98
B11 | 0
B12 | 75
B13 | 56
B14 | 35
B15 | 98
B16 | 0
B17 | 95
B18 | 0
B19 | 0
B20 | 89
B21 | 11
